One may read the Kd as a measure of binding affinity in units of concentration. Higher therefore signals weaker binding. Usually koff stands for a measure of how fast the partners let go of each other.

In the assay the target is T1, Pituitary Adenylate Cyclase-Activating Polypeptide 38 (PACAP38) (Homo sapiens, not fully specified; C-terminal lysine is amidated; N-terminally or C-terminally biotinylated in the HTRF binding assay and N-terminally biotinylated in the PC-12 cell binding assay).
T1 construct: synthetic peptide (American Peptide; AnaSpec for biotinylated forms); also called human PACAP38; PACAP 1-38
T1 peptide: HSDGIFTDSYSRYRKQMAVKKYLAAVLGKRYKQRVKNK
Put plainly: SPR ProteOn, Ab immobilized.

B1: Ab22 (antibody, V domains shown)
VH: QEQLVESGGGLVQPEGSLTLTCTASGFDFSSNAMCWVRQAPGKGLEWIGSIYNADGKNYYAIWAKGRFTISRTSSTTVTLQMTSLTAADTATYFCARDFDLWGQGTLVTVSS
VL: AAVLTQTPSPVSAAVGGTVTINCQSSQSVYDNDWLAWFQQKPGQPPKLLIYLTSTLASGVPSRFSGSGSGTQFTLTISGVQCDDAATYYCLGGYDEDGDTHVFGGGTEVVVKR
Consider B1, for which the affinity, expressed as Kd, was 0.027 nM and the koff was found to be 1e-05 s⁻¹.

Source of the values: US20210324068A1 (H LUNDBECK A S, published 2021).
